# Measurements as given in patent US10987431B2, “Preparation method of adiposomes, and use thereof” (Institute Of Biophysics, Chinese Academy Of Sciences, priority 2015, dated 2021).
# B1: Perilipin-2 proteins: lipid droplet resident protein of mammals, SEQ ID NO: 6, expressed with SMT3 tag cleaved by Ulp1 (protein)
# chain: MASVAVDPQPSVVTRVVNLPLVSSTYDLMSSAYLSTKDQYPYLKSVCEMAENGVKTITSVAMTSALPIIQKLEPQIAVANTYACKGLDRIEERLPILNQPSTQIVANAKGAVTGAKDAVTTTVTGAKDSVASTITGVMDKTKGAVTGSVEKTKSVVSGSINTVLGSRMMQLVSSGVENALTKSELLVEQYLPLTEEELEKEAKKVEGFDLVQKPSYYVRLGSLSTKLHSRAYQQALSRVKEAKQKSQQTISQLHSTVHLIEFARKNVYSANQKIQDAQDKLYLSWVEWKRSIGYDDTDESHCAEHIESRTLAIARNLTQQLQTTCHTLLSNIQGVPQNIQDQAKHMGVMAGDIYSVFRNAASFKEVSDSLLTSSKGQLQKMKESLDDVMDYLVNNTPLNWLVGPFYPQLTESQNAQDQGAEMDKSSQETQRSEHKTH
# modifications: Perilipin-2 protein
# B2: MLDS proteins: lipid droplet resident protein of oleaginous bacterium RHA1, SEQ ID NO: 2 (protein)
# chain: MTDQKTIDSVKTSLYAAVGAGDVVVQAVADVVAQVRSRAESTQGDVEERVGGAKERIAGLQEEVTEGVENLRDRLAGLPSELPEELAELREKFTADELRKVAEAYLKVASDLYTSLAERGEDTVERIRKQPVVEEGIGRAETAFGDAVELTEEALGTVARQTRAVGEQAAKLAGRASGRISDTAEGLGEAIADAGDEAALKVLDLGDQAEEASKDAADRVTATAADVQARADKAAPAKHAAPAKKAAPAKAAATPAPAPAKKAAAPAKKAAPAKKA
# modifications: MLDS protein
# B3: MDT-28 proteins: nematode lipid droplet resident protein, SEQ ID NO: 4 (protein)
# chain: MTDVEQPVSVEDQQAQAQSYYDQVLGNAYVQTAINAYTKTKEFHPLLNSTLNSAEEKVSTVGNYAAQKAYDGYNSYYVKPKNTAYEAVSYGTERAKTAVESGKQAAIVGGTFGIGAAVVLTQFSLALSAGGAALVLEQVDSAKKLGSSAISTIKEAELAVEHRIFSALHQAQRIAMVPVEKITENTNSLLDILDGAVQKGLNIEVPPSVNLTIGQRVKNLASLIVQGVSNKLFKAHDHVIDPINERARNYLEQLSQSFVLLDIVREKKTWVIEKSNELSTSVFDFKKTLEEEAQKYKVAPEEMLMKHIQSTSEQLSTQLQSLREKGQNVFGDGTKIDSTIDYLENLKKNFTDAEDVYKVRDEVLNEGRQRIAELSTWTTSLLIISAEWQFEPEDLLIEELYFDAPPPVRTRNLYRNRA
# modifications: MDT-28 protein
# B4: ATGL: functional protein adipose triacylglycerol lipase, SEQ ID NO: 8 (protein)
# chain: MFPREKTWNISFAGCGFLGVYYVGVASCLREHAPFLVANATHIYGASAGALTATALVTGVCLGEAGAKFIEVSKEARKRFLGPLHPSFNLVKIIRSFLLKVLPADSHEHASGRLGISLTRVSDGENVIISHFNSKDELIQANVCSGFIPVYCGLIPPSLQGVRYVDGGISDNLPLYELKNTITVSPFSGESDICPQDSSTNIHELRVTNTSIQFNLRNLYRLSKALFPPEPLVLREMCKQGYRDGLRFLQRNGLLNRPNPLLALPPARPHGPEDKDQAVESAQAEDYSQLPGEDHILEHLPARLNEALLEACVEPTDLLTTLSNMLPVRLATAMMVPYTLPLESALSFTIRLLEWLPDVPEDIRWMKEQTGSICQYLVMRAKRKLGRHLPSRLPEQVELRRVQSLPSVPLSCAAYREALPGWMRNNLSLGDALAKWEECQRQLLLGLFCTNVAFPPEALRMRAPADPAPAPADPASPQHQLAGPAPLLSTPAPEARPVIGALGL
# modifications: ATGL protein
# Legend:
# [1] = system: adiposome a; assay: Recruitment of resident proteins, functional proteins and apolipoprotein to adiposomes (SDS-PAGE, silver staining); format: binding
# Method: a1, 5 μg SMT3-Perilipin-2 proteins, 25 ng Ulp1 and 500 adiposome a prepared in Example 1 were mixed to obtain 1000 mixed system.
# a2, After the step a1 was completed, a mixed system was obtained by incubating at room temperature for 1 h (the practical operation may be performed on ice).
# a3, After the step a2 was completed, the mixed system was taken to centrifuge at 20000 g for 5 min, and the liquid phase system presented two layers (the upper layer was adiposomes). The lower solution was drawn out and the upper layer was kept.
# a4, The upper layer after the step a3 was resuspended into 1000 buffer B and centrifuged at 20000 g for 5 min, and the liquid phase system presented two layers (the upper layer was adiposomes). The lower solution was drawn out and the upper layer was kept.
# a5, The upper layer after the step a4 was resuspended into 1000 buffer B and centrifuged at 20000 g for 5 min, and the liquid phase system presented two layers. The lower solution was drawn out and the upper layer was kept (i.e., adiposomes).
# 5 μg SMT3-Perilipin-2 proteins, adiposomes obtained in the step a5 and the lower solution drawn in the step a3 were all subjected to SDS-PAGE, followed by silver staining detection.
# b1, 5 μg MLDS proteins and 50 μl adiposome a prepared in Example 1 were mixed to obtain 1000 mixed system.
# b2, After the step b1 was completed, a mixed system was obtained by incubating at room temperature for 1 h (the practical operation may be performed on ice).
# b3, After the step b2 was completed, the mixed system was taken to centrifuge at 20000 g for 5 min, and the liquid phase system presented two layers (the upper layer was adiposomes). The lower solution was drawn out and the upper layer was kept.
# b4, The upper layer after the step b3 was resuspended into 1000 buffer B and centrifuged at 20000 g for 5 min, and the liquid phase system presented two layers (the upper layer was adiposomes). The lower solution was drawn out and the upper layer was kept.
# b5, The upper layer after the step b4 was resuspended into 1000 buffer B and centrifuged at 20000 g for 5 min, and the liquid phase system presented two layers. The lower solution was drawn out and the upper layer was kept (i.e., adiposomes).
# 5 μg MLDS proteins, adiposomes obtained in the step b5 and the lower solution drawn in the step b3 were all subjected to SDS-PAGE, followed by silver staining detection.
# The MLDS proteins in the step (2) were replaced with MDT-28 proteins, without other changes in other steps. The results were seen from lanes 4, 5 and 6 in FIG. 6 (lane 4 was total proteins (MDT-28 proteins), lane 5 was adiposome recruited proteins, and lane 6 was solution proteins). […] The adiposomes recruited with MDT-28 proteins were named as artificial lipid droplet MDT-28.
# The MLDS proteins in the step (2) were replaced with Bovine serum albumin, without other changes in other steps. The results were seen from lanes 11, 12 and 13 in FIG. 6 (lane 11 was total proteins (Bovine serum albumin), lane 12 was adiposome recruited proteins, and lane 13 was solution proteins).
# SMT3-Perilipin-2 proteins in the (1) of step 1 were replaced with SMT3-ATGL proteins, and 50 μl adiposome a was replaced with 30 μl adiposome a, without other changes in other steps, to obtain adiposomes recruited with ATGL.
# 5 μg MLDS proteins in the (2) of step 1 were replaced with 9 μg Apo A-I, without other changes in other steps, to obtain adiposomes recruited with Apo A-I. The results were seen from B in FIG. 10 (lane 1 was adiposome recruited proteins, lane 2 was solution proteins, and lane 3 was total proteins (Apo A-I)). […] The adiposome recruited with Apo A-I was named as artificial lipoprotein Apo A-I.
# [2] = system: adiposome a; assay: Determination of protein saturation degree on adiposomes; format: binding; conditions: Western blot
# Method: Determination of protein saturation degree: SMT3-Perilipin-2 proteins, 25 ng Ulp1 and 30 μl adiposome a prepared in Example 1 were mixed to obtain 50 μl mixed system, and the concentrations of SMT3-Perilipin-2 proteins in the mixed system were 0.015 μg/μl, 0.030 μg/μl, 0.056 μg/μl, 0.080 μg/μl, 0.101 μg/μl, 0.137 μg/μl, 0.166 μg/μl or 0.191 μg/μl. Then, artificial lipid droplets were obtained according to the above steps a2 to a5, and were subjected to SDS-PAGE, followed by staining with colloid blue, or were subjected to Western blot detection using Perilipin-2 antibody as primary antibody. The results were seen from C in FIG. 7 (in which a was the result of colloid blue staining, b was the result of Western blot detection).
# Determination of protein saturation degree: SMT3-ATGL proteins, and 500 adiposome a prepared in Example 1 were mixed to obtain 1000 mixed system, and the concentrations of SMT3-ATGL proteins in the mixed system were 0.091 μg/μl, 0.132 μg/μl, 0.171 μg/μl, 0.209 μg/μl, 0.244 μg/μl, 0.278 μg/μl or 0.310 μg/μl. Then artificial lipid droplets were obtained according to the a2 to a5 of step 1, and were subjected to SDS-PAGE, followed by silver staining, or were subjected to Western blot detection using ATGL antibody (Cell Signaling Technology, Danvers, Mass., the product item: 2138) as primary antibody. […]
# [3] = incubating at room temperature for 1 h, SDS-PAGE, silver staining
Molecule,"proteins recruited to adiposome a [1, 3]",also measured
"Apo A-I: apolipoprotein A1 from human, purified per Peitsch et al. 1989",about 50%,
"Bovine serum albumin: purchased from Sigma, product item A4612; control protein [reference compound]",,"recruitment to adiposome a (in words) [1, 3]: no Bovine serum albumin was recruited"
B1,about 50%,"recruitment on adiposomes, saturation (in words) ([2]; 0.015-0.191 μg/μl SMT3-Perilipin-2 proteins, colloid blue staining): saturable"
B2,about 80%,
B3,about 90%,
B4,,"protein concentration in the reaction system at which recruitment on adiposomes reached saturation ([2]; 0.091-0.310 μg/μl SMT3-ATGL proteins, silver staining): 0.209 µg/µL; fraction of protein recruited to adiposome a ([1]; SMT3-ATGL proteins, 30 μl adiposome a, incubating at normal temperature or 4° C.): about ⅓"
